The target in one assay is T1, hGid4 (Δ1-115) (human, UniProt Q8IVV7 116-300).
T1 sequence: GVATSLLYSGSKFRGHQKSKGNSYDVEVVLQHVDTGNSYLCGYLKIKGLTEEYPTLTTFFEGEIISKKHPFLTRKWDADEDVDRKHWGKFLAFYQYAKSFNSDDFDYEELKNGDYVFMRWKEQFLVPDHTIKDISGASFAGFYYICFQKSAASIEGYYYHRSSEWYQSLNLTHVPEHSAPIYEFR
In words: fluorescence polarisation. In general terms: Polarisation of emitted light reports the rotation of a fluorescent probe.

For a further assay, the target named is T2, yGid10 (Δ1-64, Δ285-292) (S. cerevisiae, UniProt P53242 65-284).
T2 sequence: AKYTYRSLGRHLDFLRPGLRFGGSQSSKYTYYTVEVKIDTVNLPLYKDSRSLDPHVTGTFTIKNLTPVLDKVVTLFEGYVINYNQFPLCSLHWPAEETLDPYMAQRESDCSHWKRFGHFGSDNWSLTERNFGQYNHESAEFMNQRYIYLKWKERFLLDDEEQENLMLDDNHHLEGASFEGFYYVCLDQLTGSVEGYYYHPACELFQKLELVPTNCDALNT
The assay is described as follows: crystal structure.

Two molecules from article doi:10.1101/2021.09.03.458554 (bioRxiv, 2021) can be followed below.

B1: GVATSLLW peptide (hGid4 residues 116-122) (peptide)
peptide: GVATSLLW
Regarding B1, the binding result in the assay with hGid4 (Δ1-115) is on record as “binds”.

B2: FWLPANLW peptide (peptide)
peptide: FWLPANLW
B2: the binding result with yGid10 (Δ1-64, Δ285-292) is “binds”.
